In patent US20230365641:
Values joined by “and” are separate entries in the source; they are usually repeats but may differ in a detail not shown here. Identical values can stand only once.

Legend:
[1] = test system: TC21
[2] = test system: TC24
[3] = test system: TC26
[4] = test system: TC27
[5] = test system: TC3
[6] = test system: TC46
[7] = test system: TC47
[8] = test system: TC53
[9] = test system: TC57
[10] = test system: TC68
[11] = test system: TC69
[12] = test system: TC70
[13] = test system: TC71
[14] = test system: TC73
[15] = test system: TC74
[16] = test system: TC75

Chain of recombinant human MMP-9 (chain, as listed by the source): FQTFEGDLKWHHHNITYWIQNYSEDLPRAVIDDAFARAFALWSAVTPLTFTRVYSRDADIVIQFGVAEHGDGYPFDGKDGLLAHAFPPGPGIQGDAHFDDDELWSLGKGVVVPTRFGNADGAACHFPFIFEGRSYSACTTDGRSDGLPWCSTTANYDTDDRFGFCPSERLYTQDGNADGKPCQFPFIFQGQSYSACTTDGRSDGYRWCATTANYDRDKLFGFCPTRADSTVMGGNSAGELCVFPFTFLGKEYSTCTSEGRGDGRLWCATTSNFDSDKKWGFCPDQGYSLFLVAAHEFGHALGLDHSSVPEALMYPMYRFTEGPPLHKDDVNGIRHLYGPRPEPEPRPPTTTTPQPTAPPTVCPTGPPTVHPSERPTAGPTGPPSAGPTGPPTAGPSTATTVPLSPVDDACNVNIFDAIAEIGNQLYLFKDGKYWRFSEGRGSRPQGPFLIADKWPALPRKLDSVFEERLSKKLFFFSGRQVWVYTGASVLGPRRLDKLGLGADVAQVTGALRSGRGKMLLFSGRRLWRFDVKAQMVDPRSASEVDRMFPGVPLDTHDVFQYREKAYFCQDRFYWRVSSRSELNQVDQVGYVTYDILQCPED
Chain of MMP-10 protease (chain, as listed by the source): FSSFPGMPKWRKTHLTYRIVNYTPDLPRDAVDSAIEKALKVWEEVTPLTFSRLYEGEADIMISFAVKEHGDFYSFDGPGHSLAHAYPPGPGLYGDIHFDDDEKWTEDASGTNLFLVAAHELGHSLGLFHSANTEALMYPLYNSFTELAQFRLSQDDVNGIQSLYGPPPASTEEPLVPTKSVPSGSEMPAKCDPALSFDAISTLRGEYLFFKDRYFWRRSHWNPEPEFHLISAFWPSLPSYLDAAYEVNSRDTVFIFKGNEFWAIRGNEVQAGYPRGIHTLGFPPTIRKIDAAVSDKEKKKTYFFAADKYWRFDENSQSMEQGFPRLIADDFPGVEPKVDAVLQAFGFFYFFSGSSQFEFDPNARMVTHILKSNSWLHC
Chain of TC24 (chain, as listed by the source, chain 1 of 3, other chains not shown): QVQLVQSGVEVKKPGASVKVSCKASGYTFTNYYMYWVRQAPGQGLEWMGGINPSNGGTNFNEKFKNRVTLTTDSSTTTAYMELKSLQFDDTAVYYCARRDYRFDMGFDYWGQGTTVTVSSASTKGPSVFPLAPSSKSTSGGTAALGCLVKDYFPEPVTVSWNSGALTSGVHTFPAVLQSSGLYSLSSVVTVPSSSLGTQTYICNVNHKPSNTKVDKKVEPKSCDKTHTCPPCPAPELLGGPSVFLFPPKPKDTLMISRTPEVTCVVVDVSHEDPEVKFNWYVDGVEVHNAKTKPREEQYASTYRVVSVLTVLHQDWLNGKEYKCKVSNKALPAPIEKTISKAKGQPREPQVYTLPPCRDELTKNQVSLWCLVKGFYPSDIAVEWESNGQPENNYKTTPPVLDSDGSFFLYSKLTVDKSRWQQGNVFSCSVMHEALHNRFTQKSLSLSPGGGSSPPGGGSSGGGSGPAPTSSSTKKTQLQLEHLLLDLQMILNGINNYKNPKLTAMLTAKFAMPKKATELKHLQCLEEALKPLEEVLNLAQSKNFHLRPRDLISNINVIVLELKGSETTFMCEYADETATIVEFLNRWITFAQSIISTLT
Chain of TC24 (chain, as listed by the source, chain 2 of 3, other chains not shown): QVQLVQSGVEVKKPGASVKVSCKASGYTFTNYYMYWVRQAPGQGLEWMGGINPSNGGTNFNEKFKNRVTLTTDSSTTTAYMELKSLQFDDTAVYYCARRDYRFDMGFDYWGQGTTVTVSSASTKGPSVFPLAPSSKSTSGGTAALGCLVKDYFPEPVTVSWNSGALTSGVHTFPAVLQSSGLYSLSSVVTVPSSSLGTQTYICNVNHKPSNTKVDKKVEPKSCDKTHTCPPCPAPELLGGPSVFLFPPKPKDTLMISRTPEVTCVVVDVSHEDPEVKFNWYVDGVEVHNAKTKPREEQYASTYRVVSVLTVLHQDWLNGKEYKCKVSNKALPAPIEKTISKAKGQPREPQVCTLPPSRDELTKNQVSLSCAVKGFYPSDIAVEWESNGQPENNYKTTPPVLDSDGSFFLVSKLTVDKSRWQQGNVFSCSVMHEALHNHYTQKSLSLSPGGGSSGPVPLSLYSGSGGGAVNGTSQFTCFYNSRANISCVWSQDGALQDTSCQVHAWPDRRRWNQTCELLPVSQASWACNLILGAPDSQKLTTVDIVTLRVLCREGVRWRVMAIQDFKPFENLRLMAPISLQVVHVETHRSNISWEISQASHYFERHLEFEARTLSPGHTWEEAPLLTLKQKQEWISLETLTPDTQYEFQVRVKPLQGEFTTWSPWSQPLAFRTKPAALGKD
Chain of TC3 (chain, as listed by the source, chain 1 of 3, other chains not shown): as the sequence (chain, as listed by the source, chain 1 of 3, other chains not shown) above
Chain of TC3 (chain, as listed by the source, chain 2 of 3, other chains not shown): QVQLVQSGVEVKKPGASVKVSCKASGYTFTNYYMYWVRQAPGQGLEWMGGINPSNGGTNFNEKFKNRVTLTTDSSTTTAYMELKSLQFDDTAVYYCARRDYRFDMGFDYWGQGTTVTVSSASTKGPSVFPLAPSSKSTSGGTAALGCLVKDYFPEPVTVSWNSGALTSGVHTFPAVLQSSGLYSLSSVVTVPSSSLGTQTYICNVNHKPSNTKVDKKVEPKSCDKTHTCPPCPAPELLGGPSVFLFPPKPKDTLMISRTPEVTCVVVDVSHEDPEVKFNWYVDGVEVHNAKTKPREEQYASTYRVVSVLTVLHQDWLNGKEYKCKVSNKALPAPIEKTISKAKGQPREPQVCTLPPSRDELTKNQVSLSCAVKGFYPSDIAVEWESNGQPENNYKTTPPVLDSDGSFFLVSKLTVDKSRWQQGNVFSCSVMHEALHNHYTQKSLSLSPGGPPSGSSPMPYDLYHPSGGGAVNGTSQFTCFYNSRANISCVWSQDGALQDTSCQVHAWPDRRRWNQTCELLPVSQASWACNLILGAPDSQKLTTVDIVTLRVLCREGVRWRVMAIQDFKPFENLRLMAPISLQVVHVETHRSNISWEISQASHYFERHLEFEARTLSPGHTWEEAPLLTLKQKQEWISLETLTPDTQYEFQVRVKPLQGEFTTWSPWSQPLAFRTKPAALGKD
Chain of TC46 (chain, as listed by the source, chain 1 of 3, other chains not shown): as the sequence (chain, as listed by the source, chain 1 of 3, other chains not shown) above
Chain of TC46 (chain, as listed by the source, chain 2 of 3, other chains not shown): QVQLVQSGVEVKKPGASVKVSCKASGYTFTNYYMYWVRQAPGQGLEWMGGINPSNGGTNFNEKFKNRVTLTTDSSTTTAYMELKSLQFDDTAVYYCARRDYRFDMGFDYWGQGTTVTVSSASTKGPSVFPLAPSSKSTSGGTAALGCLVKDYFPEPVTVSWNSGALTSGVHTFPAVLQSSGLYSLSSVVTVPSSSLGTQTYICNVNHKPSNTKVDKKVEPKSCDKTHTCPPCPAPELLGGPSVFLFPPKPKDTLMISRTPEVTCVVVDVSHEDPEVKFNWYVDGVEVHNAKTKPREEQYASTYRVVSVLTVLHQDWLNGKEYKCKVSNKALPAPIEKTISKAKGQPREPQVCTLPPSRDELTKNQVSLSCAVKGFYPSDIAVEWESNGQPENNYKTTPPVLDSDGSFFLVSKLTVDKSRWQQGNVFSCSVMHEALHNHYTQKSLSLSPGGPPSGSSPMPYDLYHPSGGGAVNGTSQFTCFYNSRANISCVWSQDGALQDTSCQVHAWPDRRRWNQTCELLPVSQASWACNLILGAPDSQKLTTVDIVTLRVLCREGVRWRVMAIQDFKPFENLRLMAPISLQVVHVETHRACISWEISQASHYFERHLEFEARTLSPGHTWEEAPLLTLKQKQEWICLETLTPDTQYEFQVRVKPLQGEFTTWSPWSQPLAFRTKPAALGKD
Chain of TC47 (chain, as listed by the source, chain 1 of 3, other chains not shown): as the sequence (chain, as listed by the source, chain 1 of 3, other chains not shown) above
Chain of TC47 (chain, as listed by the source, chain 2 of 3, other chains not shown): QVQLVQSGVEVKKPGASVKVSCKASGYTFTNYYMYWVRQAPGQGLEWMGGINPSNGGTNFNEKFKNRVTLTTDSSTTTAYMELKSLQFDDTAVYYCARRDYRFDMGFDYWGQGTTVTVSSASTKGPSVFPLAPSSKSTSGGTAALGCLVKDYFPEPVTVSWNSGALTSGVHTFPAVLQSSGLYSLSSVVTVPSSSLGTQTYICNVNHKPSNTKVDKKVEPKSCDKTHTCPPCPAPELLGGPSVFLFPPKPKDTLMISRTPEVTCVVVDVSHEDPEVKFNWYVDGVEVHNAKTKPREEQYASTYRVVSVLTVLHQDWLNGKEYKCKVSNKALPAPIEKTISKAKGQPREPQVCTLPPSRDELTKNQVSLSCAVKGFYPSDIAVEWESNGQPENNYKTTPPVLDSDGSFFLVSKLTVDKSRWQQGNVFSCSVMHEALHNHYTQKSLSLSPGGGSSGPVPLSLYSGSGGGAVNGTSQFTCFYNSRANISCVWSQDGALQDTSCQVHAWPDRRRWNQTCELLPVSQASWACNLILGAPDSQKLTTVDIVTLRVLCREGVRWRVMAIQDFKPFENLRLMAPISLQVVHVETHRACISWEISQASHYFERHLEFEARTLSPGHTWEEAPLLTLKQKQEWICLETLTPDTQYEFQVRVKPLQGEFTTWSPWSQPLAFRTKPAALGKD

MMP-10 protease
cleavage efficiency [1]: cleavage efficiency of greater than 80% | cleavage efficiency [2]: cleavage efficiency of greater than 80% | cleavage efficiency [3]: cleavage efficiency of greater than 80% | cleavage efficiency [4]: cleavage efficiency of greater than 80%

recombinant human MMP-9
Est. kcat/KM [2]: 42000 M⁻¹ s⁻¹ | Est. kcat/KM [5]: 3500 M⁻¹ s⁻¹ | Est. kcat/KM [6]: 3500 M⁻¹ s⁻¹ | Est. kcat/KM [7]: 38000 M⁻¹ s⁻¹ | Est. kcat/KM [8]: 19000 M⁻¹ s⁻¹ and 18000 M⁻¹ s⁻¹ | Est. kcat/KM [9]: 13000 M⁻¹ s⁻¹ and 14000 M⁻¹ s⁻¹ | Est. kcat/KM [10]: 16000 M⁻¹ s⁻¹ and 15000 M⁻¹ s⁻¹ | Est. kcat/KM [11]: 35000 M⁻¹ s⁻¹ and 36000 M⁻¹ s⁻¹ | Est. kcat/KM [12]: 390 M⁻¹ s⁻¹ and 370 M⁻¹ s⁻¹ | Est. kcat/KM [13]: 28000 M⁻¹ s⁻¹ and 30000 M⁻¹ s⁻¹ | Est. kcat/KM [14]: 30000 M⁻¹ s⁻¹ and 29000 M⁻¹ s⁻¹ | Est. kcat/KM [15]: 850 M⁻¹ s⁻¹ and 860 M⁻¹ s⁻¹ | Est. kcat/KM [16]: 25000 M⁻¹ s⁻¹ and 26000 M⁻¹ s⁻¹
